Data as given in IntAct's records for PubMed 29892012.

B1: E3 ubiquitin-protein ligase LNX (Homo sapiens), Q8TBB1 (parent)
chain: MNQPESANDPEPLCAVCGQAHSLEENHFYSYPEEVDDDLICHICLQALLDPLDTPCGHTYCTLCLTNFLVEKDFCPMDRKPLVLQHCKKSSILVNKLLNKLLVTCPFREHCTQVLQRCDLEHHFQTSCKGASHYGLTKDRKRRSQDGCPDGCASLTATAPSPEVSAAATISLMTDEPGLDNPAYVSSAEDGQPAISPVDSGRSNRTRARPFERSTIRSRSFKKINRALSVLRRTKSGSAVANHADQGRENSENTTAPEVFPRLYHLIPDGEITSIKINRVDPSESLSIRLVGGSETPLVHIIIQHIYRDGVIARDGRLLPGDIILKVNGMDISNVPHNYAVRLLRQPCQVLWLTVMREQKFRSRNNGQAPDAYRPRDDSFHVILNKSSPEEQLGIKLVRKVDEPGVFIFNVLDGGVAYRHGQLEENDRVLAINGHDLRYGSPESAAHLIQASERRVHLVVSRQVRQRSPDIFQEAGWNSNGSWSPGPGERSNTPKPLHPTITCHEKVVNIQKDPGESLGMTVAGGASHREWDLPIYVISVEPGGVISRDGRIKTGDILLNVDGVELTEVSRSEAVALLKRTSSSIVLKALEVKEYEPQEDCSSPAALDSNHNMAPPSDWSPSWVMWLELPRCLYNCKDIVLRRNTAGSLGFCIVGGYEEYNGNKPFFIKSIVEGTPAYNDGRIRCGDILLAVNGRSTSGMIHACLARLLKELKGRITLTIVSWPGTFL
partner: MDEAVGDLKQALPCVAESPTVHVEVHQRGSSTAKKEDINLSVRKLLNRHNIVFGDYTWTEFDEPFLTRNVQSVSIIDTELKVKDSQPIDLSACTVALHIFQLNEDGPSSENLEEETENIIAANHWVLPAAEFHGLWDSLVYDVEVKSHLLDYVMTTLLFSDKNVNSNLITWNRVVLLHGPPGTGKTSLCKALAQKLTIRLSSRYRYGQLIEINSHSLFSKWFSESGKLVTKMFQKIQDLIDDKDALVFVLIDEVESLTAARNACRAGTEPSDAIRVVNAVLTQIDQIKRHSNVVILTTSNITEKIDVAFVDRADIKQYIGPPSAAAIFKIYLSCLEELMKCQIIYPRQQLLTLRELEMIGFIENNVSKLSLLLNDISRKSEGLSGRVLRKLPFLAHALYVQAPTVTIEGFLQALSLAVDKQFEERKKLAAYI
B2: E3 ubiquitin-protein ligase LNX (Homo sapiens), Q8TBB1 (parent)
chain: B1 chain
partner: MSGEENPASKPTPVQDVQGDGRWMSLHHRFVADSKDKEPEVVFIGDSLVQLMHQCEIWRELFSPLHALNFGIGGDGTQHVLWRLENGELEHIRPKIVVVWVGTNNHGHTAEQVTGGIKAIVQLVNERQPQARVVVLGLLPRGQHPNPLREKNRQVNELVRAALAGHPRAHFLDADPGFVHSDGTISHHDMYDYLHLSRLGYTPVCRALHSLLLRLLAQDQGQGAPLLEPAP
B3: Centrosomal protein POC5 (Homo sapiens), Q8NA72 (parent)
chain: MSSDEEKYSLPVVQNDSSRGSSVSSNLQEEYEELLHYAIVTPNIEPCASQSSHPKGELVPDVRISTIHDILHSQGNNSEVRETAIEVGKGCDFHISSHSKTDESSPVLSPRKPSHPVMDFFSSHLLADSSSPATNSSHTDAHEILVSDFLVSDENLQKMENVLDLWSSGLKTNIISELSKWRLNFIDWHRMEMRKEKEKHAAHLKQLCNQINELKELQKTFEISIGRKDEVISSLSHAIGKQKEKIELMRTFFHWRIGHVRARQDVYEGKLADQYYQRTLLKKVWKVWRSVVQKQWKDVVERACQARAEEVCIQISNDYEAKVAMLSGALENAKAEIQRMQHEKEHFEDSMKKAFMRGVCALNLEAMTIFQNRNDAGIDSTNNKKEEYGPGVQGKEHSAHLDPSAPPMPLPVTSPLLPSPPAAVGGASATAVPSAASMTSTRAASASSVHVPVSALGAGSAATAASEEMYVPRVVTSAQQKAGRTITARITGRCDFASKNRISSSLAIMGVSPPMSSVVVEKHHPVTVQTIPQATAAKYPRTIHPESSTSASRSLGTRSAHTQSLTSVHSIKVVD
partner: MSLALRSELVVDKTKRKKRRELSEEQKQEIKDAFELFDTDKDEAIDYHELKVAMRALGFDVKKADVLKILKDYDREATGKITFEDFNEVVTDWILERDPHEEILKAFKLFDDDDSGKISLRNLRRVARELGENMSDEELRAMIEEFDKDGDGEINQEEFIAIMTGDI
B4: Coiled-coil alpha-helical rod protein 1 (Homo sapiens), Q8TD31 (parent)
chain: MFPPSGSTGLIPPSHFQARPLSTLPRMAPTWLSDIPLVQPPGHQDVSERRLDTQRPQVTMWERDVSSDRQEPGRRGRSWGLEGSQALSQQAEVIVRQLQELRRLEEEVRLLRETSLQQKMRLEAQAMELEALARAEKAGRAEAEGLRAALAGAEVVRKNLEEGSQRELEEVQRLHQEQLSSLTQAHEEALSSLTSKAEGLEKSLSSLETRRAGEAKELAEAQREAELLRKQLSKTQEDLEAQVTLVENLRKYVGEQVPSEVHSQTWELERQKLLETMQHLQEDRDSLHATAELLQVRVQSLTHILALQEEELTRKVQPSDSLEPEFTRKCQSLLNRWREKVFALMVQLKAQELEHSDSVKQLKGQVASLQEKVTSQSQEQAILQRSLQDKAAEVEVERMGAKGLQLELSRAQEARRRWQQQTASAEEQLRLVVNAVSSSQIWLETTMAKVEGAAAQLPSLNNRLSYAVRKVHTIRGLIARKLALAQLRQESCPLPPPVTDVSLELQQLREERNRLDAELQLSARLIQQEVGRAREQGEAERQQLSKVAQQLEQELQQTQESLASLGLQLEVARQGQQESTEEAASLRQELTQQQELYGQALQEKVAEVETRLREQLSDTERRLNEARREHAKAVVSLRQIQRRAAQEKERSQELRRLQEEARKEEGQRLARRLQELERDKNLMLATLQQEGLLSRYKQQRLLTVLPSLLDKKKSVVSSPRPPECSASAPVAAAVPTRESIKGSLSVLLDDLQDLSEAISKEEAVCQGDNLDRCSSSNPQMSS
partner: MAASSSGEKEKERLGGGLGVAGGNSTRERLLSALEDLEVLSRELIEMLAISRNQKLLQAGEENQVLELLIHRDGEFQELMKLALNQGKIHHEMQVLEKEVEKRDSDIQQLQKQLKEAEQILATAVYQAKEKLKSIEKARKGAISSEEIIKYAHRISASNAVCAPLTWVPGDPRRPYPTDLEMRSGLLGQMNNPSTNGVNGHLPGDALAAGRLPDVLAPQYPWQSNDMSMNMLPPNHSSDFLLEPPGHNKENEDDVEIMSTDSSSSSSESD
B5: E3 ubiquitin-protein ligase LNX (Homo sapiens), Q8TBB1 (parent)
chain: B1 chain
partner: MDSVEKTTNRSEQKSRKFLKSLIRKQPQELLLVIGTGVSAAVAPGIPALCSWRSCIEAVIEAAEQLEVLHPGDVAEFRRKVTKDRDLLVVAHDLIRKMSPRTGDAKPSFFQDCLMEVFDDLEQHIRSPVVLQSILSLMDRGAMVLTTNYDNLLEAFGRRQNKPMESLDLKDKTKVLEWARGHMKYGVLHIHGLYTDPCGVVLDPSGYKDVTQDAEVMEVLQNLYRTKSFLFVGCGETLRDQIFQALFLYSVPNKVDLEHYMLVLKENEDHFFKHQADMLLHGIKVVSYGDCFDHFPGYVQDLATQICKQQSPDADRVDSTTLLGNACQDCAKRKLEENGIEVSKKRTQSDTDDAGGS
B6: E3 ubiquitin-protein ligase LNX (Homo sapiens), Q8TBB1 (parent)
chain: B1 chain
partner: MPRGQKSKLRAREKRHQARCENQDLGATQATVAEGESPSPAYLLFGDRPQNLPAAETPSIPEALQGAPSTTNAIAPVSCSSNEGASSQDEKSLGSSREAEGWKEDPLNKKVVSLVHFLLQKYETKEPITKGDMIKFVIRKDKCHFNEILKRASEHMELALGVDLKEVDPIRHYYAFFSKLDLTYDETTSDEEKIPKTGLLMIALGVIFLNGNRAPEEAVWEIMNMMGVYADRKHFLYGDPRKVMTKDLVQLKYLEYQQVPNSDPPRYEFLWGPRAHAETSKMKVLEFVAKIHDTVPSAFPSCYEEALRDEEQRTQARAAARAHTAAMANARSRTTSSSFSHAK
B7: E3 ubiquitin-protein ligase LNX (Homo sapiens), Q8TBB1 (parent)
chain: B1 chain
partner: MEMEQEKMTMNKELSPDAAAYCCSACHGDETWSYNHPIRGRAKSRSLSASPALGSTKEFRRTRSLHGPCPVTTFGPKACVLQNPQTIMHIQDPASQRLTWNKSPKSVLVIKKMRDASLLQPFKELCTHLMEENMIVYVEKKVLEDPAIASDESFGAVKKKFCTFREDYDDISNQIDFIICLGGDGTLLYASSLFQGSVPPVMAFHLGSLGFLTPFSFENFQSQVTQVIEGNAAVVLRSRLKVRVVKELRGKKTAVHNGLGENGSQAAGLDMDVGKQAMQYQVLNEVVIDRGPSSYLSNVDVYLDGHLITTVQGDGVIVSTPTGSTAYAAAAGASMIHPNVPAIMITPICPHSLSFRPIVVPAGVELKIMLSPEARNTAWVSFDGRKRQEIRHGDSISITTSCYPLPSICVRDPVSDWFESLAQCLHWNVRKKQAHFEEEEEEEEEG
B8: E3 ubiquitin-protein ligase LNX (Homo sapiens), Q8TBB1 (parent)
chain: B1 chain
partner: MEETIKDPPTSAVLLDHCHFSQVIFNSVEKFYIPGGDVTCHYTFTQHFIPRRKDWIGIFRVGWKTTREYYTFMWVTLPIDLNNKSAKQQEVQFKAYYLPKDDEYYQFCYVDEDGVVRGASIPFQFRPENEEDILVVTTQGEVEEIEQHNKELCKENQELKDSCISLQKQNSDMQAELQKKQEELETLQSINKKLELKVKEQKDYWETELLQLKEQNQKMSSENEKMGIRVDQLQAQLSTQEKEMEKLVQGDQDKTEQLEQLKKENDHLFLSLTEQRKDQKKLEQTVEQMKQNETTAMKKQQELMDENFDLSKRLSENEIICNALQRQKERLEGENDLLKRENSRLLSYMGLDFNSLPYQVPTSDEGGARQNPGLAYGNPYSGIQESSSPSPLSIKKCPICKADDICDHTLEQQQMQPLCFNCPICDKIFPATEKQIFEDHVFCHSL

Variants of: B1
Details: with pch2_human TRIP13, Q15645

With E295K as the variant, how does the “effect of a mutation on the interaction” value read?
The value was “disrupting interaction strength”.

Variants of: B2
Details: with pa1b3_human PAFAH1B3, Q15102

How did the “effect of a mutation on the interaction” value turn out when E295K was run?
The value was “disrupting interaction strength”.

Variants of: B3
Details: with cetn3_human CETN3, O15182

How did the “effect of a mutation on the interaction” value turn out when M469T was run?
The value was “with no effect”.

Variants of: B4
Details: with med4_human MED4, Q9NPJ6

For W337R, which “effect of a mutation on the interaction” value is on record?
The value was “with no effect”.

Variants of: B5
Details: with FAM118A

For E295K, which “effect of a mutation on the interaction” value is on record?
The value was “disrupting interaction strength”.

Variants of: B6
Details: with magbi_human MAGEB18, Q96M61

With E295K as the variant, how does the “effect of a mutation on the interaction” value read?
Its value is “disrupting interaction strength”.

Variants of: B7
Details: with nadk_human NADK

How did the “effect of a mutation on the interaction” value turn out when E295K was run?
Its value is “disrupting interaction strength”.

Variants of: B8
Details: with caco2_human CALCOCO2, Q13137

Which “effect of a mutation on the interaction” value does the source give for E295K here?
Its value is “disrupting interaction strength”.
